In patent publication CN117242096A (APTEVO RES AND DEVELOPMENT LIMITED, dated 2023):
Values belong to the binder of their own block, whether it stands above or below them.

Columns and labels:
[1] = molecular target: T1, 人CD3ε (TCR/CD3复合物，Jurkat细胞) (human, UniProt P07766 23-207); experiment: flow cytometry on Jurkat cells, domain within anti-TA x anti-CD3ε constructs
T1 construct: whole, on cells; The other chains of the TCR/CD3 complex are present on the cells; also called CD3(+) Jurkat

[2] = molecular target: T2, 人PSMA ECD-AFH (可溶性人PSMA ECD，重组二聚体PSMA ECD) (human, UniProt Q04609 44-750); experiment: SPR Biacore T200, scFv-Fc captured by anti-human IgG, dimeric PSMA ECD as analyte
T2 construct: Expressed in HEK-293, IMAC then SEC; the dimer fraction was used; also called TSC033; HuPSMA-AFH
T2 sequence (Q04609 other isoform, or with tags, fused parts or gaps): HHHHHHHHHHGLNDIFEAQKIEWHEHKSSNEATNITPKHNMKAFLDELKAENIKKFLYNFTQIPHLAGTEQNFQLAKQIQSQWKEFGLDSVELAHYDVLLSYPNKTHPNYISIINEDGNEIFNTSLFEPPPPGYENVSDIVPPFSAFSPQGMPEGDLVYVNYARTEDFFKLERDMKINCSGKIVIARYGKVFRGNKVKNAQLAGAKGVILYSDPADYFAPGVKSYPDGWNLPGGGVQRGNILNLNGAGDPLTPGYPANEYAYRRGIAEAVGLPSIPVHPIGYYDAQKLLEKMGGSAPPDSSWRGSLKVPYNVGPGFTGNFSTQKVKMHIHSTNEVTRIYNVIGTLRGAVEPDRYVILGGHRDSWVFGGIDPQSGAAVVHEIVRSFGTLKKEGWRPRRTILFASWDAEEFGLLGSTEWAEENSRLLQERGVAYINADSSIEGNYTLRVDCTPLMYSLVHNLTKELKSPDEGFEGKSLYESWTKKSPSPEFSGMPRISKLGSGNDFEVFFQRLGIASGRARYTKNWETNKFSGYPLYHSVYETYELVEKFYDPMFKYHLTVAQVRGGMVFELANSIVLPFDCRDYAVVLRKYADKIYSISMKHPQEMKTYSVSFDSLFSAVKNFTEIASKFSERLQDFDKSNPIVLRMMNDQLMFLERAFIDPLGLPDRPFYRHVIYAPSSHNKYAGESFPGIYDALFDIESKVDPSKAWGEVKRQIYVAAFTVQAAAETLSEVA

全长食蟹猴PSMA = molecular target: T3, 全长食蟹猴PSMA (cynomolgus monkey, UniProt Q04609 1-750 (human entry)); experiment: MSD live-cell ELISA on CHOK1SV/cynoPSMA cells
T3 construct: On transfected CHO cells; also called TSC308; cynoPSMA
T3 chain: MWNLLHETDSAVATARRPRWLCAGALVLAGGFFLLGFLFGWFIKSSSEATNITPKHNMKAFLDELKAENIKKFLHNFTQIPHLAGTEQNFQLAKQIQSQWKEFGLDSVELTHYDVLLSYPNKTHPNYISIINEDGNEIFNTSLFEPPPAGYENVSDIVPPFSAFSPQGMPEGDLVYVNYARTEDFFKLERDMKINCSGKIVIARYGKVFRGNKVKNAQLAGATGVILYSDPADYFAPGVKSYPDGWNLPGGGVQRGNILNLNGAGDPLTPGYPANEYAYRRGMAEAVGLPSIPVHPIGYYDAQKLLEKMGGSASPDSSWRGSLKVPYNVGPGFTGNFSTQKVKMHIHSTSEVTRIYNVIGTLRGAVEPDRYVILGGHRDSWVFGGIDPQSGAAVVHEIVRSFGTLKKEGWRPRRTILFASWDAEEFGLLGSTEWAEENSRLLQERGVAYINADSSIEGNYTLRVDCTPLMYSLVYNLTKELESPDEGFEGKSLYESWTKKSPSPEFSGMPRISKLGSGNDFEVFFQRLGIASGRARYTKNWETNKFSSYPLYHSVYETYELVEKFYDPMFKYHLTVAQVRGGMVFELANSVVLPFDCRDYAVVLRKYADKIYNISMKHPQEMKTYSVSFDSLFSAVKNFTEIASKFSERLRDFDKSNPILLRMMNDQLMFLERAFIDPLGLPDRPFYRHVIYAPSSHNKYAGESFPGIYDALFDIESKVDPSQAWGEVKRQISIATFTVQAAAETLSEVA

[3] = molecular target: T2, 人PSMA ECD-AFH (可溶性人PSMA ECD，重组二聚体PSMA …); experiment: SPR Biacore, dimeric PSMA ECD

T1 sequence (P07766 23-207): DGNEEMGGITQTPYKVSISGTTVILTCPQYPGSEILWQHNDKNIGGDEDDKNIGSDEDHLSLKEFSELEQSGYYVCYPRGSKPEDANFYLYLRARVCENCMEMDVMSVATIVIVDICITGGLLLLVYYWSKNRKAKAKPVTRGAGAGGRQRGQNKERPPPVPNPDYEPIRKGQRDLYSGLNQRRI

- binding result [1]: binds
B1: CRIS7H16 (scFv, V domains shown)
VH: QVQLVQSGAEVKKPGASVKVSCKASGYTFTRSTMHWVRQAPGQGLEWIGYINPSSAYTNYAQKFQGRVTLTADKSTSTAYMELSSLRSEDTAVYYCASPQVHYDYNGFPYWGQGTLVTVSS
VL: DIQMTQSPSSLSASVGDRVTITCRASSSVSYMNWYQQKPGKAPKRWIYDSSKLASGVPSRFSGSGSGTDFTLTISSLQPEDFATYYCQQWSRNPPTFGQGTKVEIK
notes: also called H16 CD3结合结构域

- binding result [2]: binds
B2: PSMA01012 (Fc fusion)
VH: QVQLVQSGAEVKKPGASVKVSCKASGYTFTDYYMHWVRQAPGQGLEWMGYFNPYNDYTRYAQKFQGRVTMTRDTSISTAYMELSSLRSDDTAVYYCARSDGYYDAMDYWGQGTTVTVSS
VL: DIQMTQSPSAMSASVGDRVTITCRASKSISKYLAWFQQKPGKVPKLRIHSGSTLQSGVPSRFSGSGSGTEFTLTISSLQPEDFATYYCQQHIEYPWTFGQGTKVEIKR
notes: Monospecific bivalent scFv-Fc, scFv in VL-VH orientation; also called TSC189 (结合结构域); 亲本构建体PSMA01012

- binding result (全长食蟹猴PSMA): binds
- Kd [3]: 40 nM
B3: PSMA01023 (Fc fusion)
chain: DIQMTQSPSTLSASVGDRVTITCRASKSISKYLAWYQQKPGKAPKLLIHSGSSLESGVPSRFSGSGSGTEFTLTISSLQPDDFATYYCQQHIEYPWTFGQGTKVEIKGGGGSGGGGSGGGGSGGGGSQVQLVQSGAEVKKPGASVKVSCKASGYTFTDYYMHWVRQAPGQGLEWMGYFNPYNDYTRYAQKFQGRVTMTRDTSTSTVYMELSSLRSEDTAVYYCARSDGYYDAMDYWGQGTTVTVSSSEPKSSDKTHTCPPCPAPEAAGAPSVFLFPPKPKDTLMISRTPEVTCVVVDVSHEDPEVKFNWYVDGVEVHNAKTKPREEQYNSTYRVVSVLTVLHQDWLNGKEYKCAVSNKALPAPIEKTISKAKGQPREPQVYTLPPSRDELTKNQVSLTCLVKGFYPSDIAVEWESNGQPENNYKTTPPVLDSDGSFFLYSKLTVDKSRWQQGNVFSCSVMHEALHNHYTQKSLSLSPGK
notes: Monospecific bivalent anti-PSMA scFv-Fc, scFv in VL-VH orientation
